# Test results as given in publication PMC4795942 (Protein Engineering, Design and Selection, 2016).
# Where a chain is given by its changes, count along the chain named. Names may count otherwise.
# B1: scFv492.1 template c with H49S S50M Y52Q (top binder of the CDR L2 library) displayed on yeast (scFv, V domains shown)
# VH: QVQLKQSGPGLVAPSQSLSITCTVSGFSLTGYGVNWVRQSPGKGLEWLGMIWGDGRTEYKSALKSRLSITKDNSKSQVFLKMNSLQTDDTARYFCASDSKDPGSFAYWGQGTLVTVSA
# VL: DVVMTQTHKFMSTSVGDRVSITCKASQDVSTAVAWYQQKSGQSPKLLISMASQRYTGVPDRFTGSGSGTDFTFTISSVQAEDLAVYYCQQHYAIPLTFGAGTKLELK
# B2: scFv492.1 S93A Y99S Y100K G101D S102P D58E T31G H49S S50M Y52Q (mutant d) displayed on yeast (scFv, V domains shown)
# VH: B1 VH
# VL: B1 VL with T31G
# Target: biotinylated MmQSOX1Trx with a carboxy-terminal AviTag (Mus musculus, UniProt Q8BND5, biotin (on the AviTag))
# Test: flow cytometry on cells
row,Binder,binding result
1,B1,binds
2,B2,binds
